Measured values taken from article doi:10.1101/2024.03.21.586151.

Target: CaM(C110)D with an IAEDANS probe coupled to position 110 (UniProt P0DP23)
Test: FRET or BRET

**Q.** With “CKIIp with a C-terminal Gly-Cys extension labeled with DDPM (peptide)” as the substance, how does the rate of FRET change after EGTA, fast phase (release of Ca^2+ from the N-domain) read?
**A.** The rate of FRET change after EGTA, fast phase (release of Ca^2+ from the N-domain) was 5.8 s⁻¹.
